# Paper doi:10.1101/2025.10.29.685329 (bioRxiv, 2025)
# No end group written: not given here.
# T1: His-PGK1 (UniProt P00558 1-417)
# T1 sequence (looked up): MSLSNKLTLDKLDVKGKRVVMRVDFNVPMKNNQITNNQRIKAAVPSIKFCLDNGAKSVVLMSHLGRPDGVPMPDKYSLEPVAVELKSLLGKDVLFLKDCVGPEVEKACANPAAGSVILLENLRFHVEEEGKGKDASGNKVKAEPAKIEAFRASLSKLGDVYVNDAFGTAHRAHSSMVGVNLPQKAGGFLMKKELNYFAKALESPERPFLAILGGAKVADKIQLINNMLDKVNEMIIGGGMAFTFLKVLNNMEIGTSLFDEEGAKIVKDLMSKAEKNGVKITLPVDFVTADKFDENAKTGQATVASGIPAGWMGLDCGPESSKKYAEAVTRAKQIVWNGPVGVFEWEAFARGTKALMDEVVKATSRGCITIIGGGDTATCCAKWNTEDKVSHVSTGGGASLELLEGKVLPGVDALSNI
# T2: GST-PGK1 (UniProt P00558 1-417)
# T2 sequence (looked up): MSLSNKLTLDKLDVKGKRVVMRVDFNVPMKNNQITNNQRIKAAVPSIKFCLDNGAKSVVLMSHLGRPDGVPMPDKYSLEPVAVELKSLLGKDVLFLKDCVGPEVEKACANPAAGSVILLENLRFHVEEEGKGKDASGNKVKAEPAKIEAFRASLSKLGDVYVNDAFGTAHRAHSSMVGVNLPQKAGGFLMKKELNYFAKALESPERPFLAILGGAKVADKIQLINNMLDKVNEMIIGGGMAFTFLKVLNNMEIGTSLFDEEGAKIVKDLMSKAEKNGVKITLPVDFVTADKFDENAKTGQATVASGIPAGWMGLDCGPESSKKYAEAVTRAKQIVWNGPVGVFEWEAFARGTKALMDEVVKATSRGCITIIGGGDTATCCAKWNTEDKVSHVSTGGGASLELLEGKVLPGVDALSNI
# Key:
# [1] = molecular target: T1, His-PGK1; assay: pull-down
# [2] = molecular target: T2, GST-PGK1; assay: co-sedimentation
Binder,binding result [1],binding result [2]
"GST-TfR1-61 (TfR cyto), wild type (domain or fragment, UniProt P02786 1-61, looked up) MMDQARSAFSNLFGGEPLSYTRFSLARQVDGDNSHVEMKLAVDEEENADNNTKANVTKPKR",binds,–
HHHHHHSAFSNLFGGEPLSYTRFSL (not fully specified) [His-Tyr peptide (lipid-linked tyrosine-based motif)],–,binds
